Assay results: US20240317826A1 (ALBERT EINSTEIN COLLEGE OF MEDICINE, published 2024)

Molecular target: T1, GST-CTD (C-terminal domain of HIV-1 integrase, aa 201-288, GST fusion) (HIV-1 (Hx3B), UniProt P04585 1348-1435)
T1 construct: domain: C-terminal (IN-CTD, aa 201-288 of integrase); also called IN-CTD; pGST-IN-CTD(aa 201-288); not shown: GST tag from pGEX3xPL vector
Test: Alpha proximity competition, low salt: increasing INI1183-304 added to GST-CTD + biotinylated TAR RNA; displaced competitor is TAR RNA

B1: His6-SUMO-INI1183-304 (other)
chain: PEVLVPIRLDMEIDGQKLRDAFTWNMNEKLMTPEMFSEILCDDLDLNPLTFVPAIASAIRQQIESYPTDSILEDQSDQRVIIKLNIHVGNISLVDQFEWDMSEKENSPEKFALKLCSELGLG
notes: range 183-304; also called 6His-SUMO-INI1183-304; Rpt1 (cartoon label); not shown: His6-SUMO (h6-smt3) tag from pET28a-h6-smt3
Which IC50 does the source give for B1 here?
The IC50 was ~5 nM.
